This note sets out measurements from the supplement of paper PMC9112550, “Optimization of the antimicrobial peptide Bac7 by deep mutational scanning” (BMC Biology, 2022).

The test system of this data set is Escherichia coli TOP10. As to the kind of experiment: shrunken log2 fold change of peptide-encoding DNA abundance (4.5 h post-induction vs induction); higher = less antimicrobial activity (less host growth inhibition). The note with it: time post-induction: 4.5 h; library: site-saturation at positions 5, 18, 19, 20.
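Further: peptides expressed intracellularly from a pBAD plasmid library in pooled LB shake-flask culture, induced with 0.3% L-arabinose, DNA abundance read by NGS, three biological replicates, DESeq2 with apeglm shrinkage.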

As for RRIRGRPPRLPRPRPRPYTCPRP, the “shrunken log2 fold change” value was -0.0226.

For the sequence RRIRHRPPRLPRPRPRPAQCPRP, the “shrunken log2 fold change” value came to 0.101. Regarding RRIRIRPPRLPRPRPRPQHWPRP, the “shrunken log2 fold change” value was 0.112. The same measure for RRIRVRPPRLPRPRPRPWWIPRP: -0.202. With RRIRSRPPRLPRPRPRPKDNPRP, the “shrunken log2 fold change” value is -0.232. Turning to RRIRFRPPRLPRPRPRPMCPPRP, the “shrunken log2 fold change” value was -0.176. In the case of RRIRVRPPRLPRPRPRPTGVPRP, the “shrunken log2 fold change” value was 0.0149. In the case of RRIRWRPPRLPRPRPRPGFTPRP, the “shrunken log2 fold change” value worked out at 0.132. In the case of RRIRQRPPRLPRPRPRPNPLPRP, the “shrunken log2 fold change” value was -0.0379.

As to RRIRCRPPRLPRPRPRPRPRPRP, the “shrunken log2 fold change” value stood at 0.83. As for RRIRERPPRLPRPRPRPNGIPRP, the “shrunken log2 fold change” value is -0.115. For RRIRRRPPRLPRPRPRPCKFPRP, the “shrunken log2 fold change” value was found to be 0.123. Consider RRIRCRPPRLPRPRPRPIAFPRP, for which the “shrunken log2 fold change” value is -0.195. In the case of RRIRERPPRLPRPRPRPSYLPRP, the “shrunken log2 fold change” value is -1.2. With RRIRKRPPRLPRPRPRPNSFPRP, the “shrunken log2 fold change” value is -0.234. Take RRIRNRPPRLPRPRPRPISNPRP: the “shrunken log2 fold change” value was found to be 0.0351. Take RRIRGRPPRLPRPRPRPWNRPRP: the “shrunken log2 fold change” value is -0.0647. Turning to RRIRDRPPRLPRPRPRPPCIPRP, the “shrunken log2 fold change” value is -0.264. Regarding RRIRIRPPRLPRPRPRPLANPRP, the “shrunken log2 fold change” value was -0.145. For the sequence RRIRRRPPRLPRPRPRPCNNPRP, the “shrunken log2 fold change” value was -0.368. As for RRIRDRPPRLPRPRPRPAAPPRP, the figure is 0.545; as for RRIRARPPRLPRPRPRPYYGPRP, -0.363. For the sequence RRIRNRPPRLPRPRPRPCPAPRP, the “shrunken log2 fold change” value was 0.203. Turning to RRIRWRPPRLPRPRPRPYCEPRP, the “shrunken log2 fold change” value is -0.481. In the case of RRIRWRPPRLPRPRPRPCLKPRP, the “shrunken log2 fold change” value came to 0.0308.

Take RRIRGRPPRLPRPRPRPCCIPRP: the “shrunken log2 fold change” value was determined as 0.214.

Turning to RRIRRRPPRLPRPRPRPLCEPRP, the “shrunken log2 fold change” value came out at 0.443. The same measure for RRIRIRPPRLPRPRPRPQRAPRP: -0.249; for RRIRPRPPRLPRPRPRPFTGPRP: -0.0818.

Turning to RRIRLRPPRLPRPRPRPVYKPRP, the “shrunken log2 fold change” value was -0.134. On to RRIRVRPPRLPRPRPRPKPPPRP, for which the “shrunken log2 fold change” value was 0.318. Take RRIRCRPPRLPRPRPRPPLIPRP: the “shrunken log2 fold change” value is -0.000572. With RRIRRRPPRLPRPRPRPHKMPRP, the “shrunken log2 fold change” value is -0.167.

Regarding RRIRVRPPRLPRPRPRPISTPRP, the “shrunken log2 fold change” value was -0.112. For the sequence RRIRWRPPRLPRPRPRPSRFPRP, the “shrunken log2 fold change” value is -0.0148. As to RRIRARPPRLPRPRPRPWKQPRP, the “shrunken log2 fold change” value turned out to be 0.00355. RRIRKRPPRLPRPRPRPHCLPRP: the “shrunken log2 fold change” value is -0.0309.

As to RRIRMRPPRLPRPRPRPKLSPRP, the “shrunken log2 fold change” value is 0.982. As for RRIRKRPPRLPRPRPRPFMVPRP, the “shrunken log2 fold change” value was -0.145. For the sequence RRIRGRPPRLPRPRPRPYYWPRP, the “shrunken log2 fold change” value was -0.25.

Turning to RRIRQRPPRLPRPRPRPGRQPRP, the “shrunken log2 fold change” value turned out to be 0.021. RRIRGRPPRLPRPRPRPAWLPRP: the “shrunken log2 fold change” value is 0.694. On to RRIRVRPPRLPRPRPRPLDNPRP, for which the “shrunken log2 fold change” value was -0.0763.

Take RRIRQRPPRLPRPRPRPLWCPRP: the “shrunken log2 fold change” value is -0.24. For the sequence RRIRKRPPRLPRPRPRPWTNPRP, the “shrunken log2 fold change” value is -0.0144. As to RRIRMRPPRLPRPRPRPPCPPRP, the “shrunken log2 fold change” value was found to be 0.564. On to RRIRMRPPRLPRPRPRPMYVPRP, for which the “shrunken log2 fold change” value stood at 0.115.

In the case of RRIRMRPPRLPRPRPRPFHMPRP, the “shrunken log2 fold change” value is 0.105.

In the case of RRIRPRPPRLPRPRPRPNWIPRP, the “shrunken log2 fold change” value was -0.441. As for RRIRDRPPRLPRPRPRPMIVPRP, the “shrunken log2 fold change” value was found to be 0.00989.

Regarding RRIRDRPPRLPRPRPRPPKYPRP, the “shrunken log2 fold change” value is -0.47. As for RRIRCRPPRLPRPRPRPANWPRP, the figure is 0.938.

In the case of RRIRYRPPRLPRPRPRPYNCPRP, the “shrunken log2 fold change” value was -0.0167.

With RRIRCRPPRLPRPRPRPSLMPRP, the “shrunken log2 fold change” value was -0.287. For RRIRKRPPRLPRPRPRPTFSPRP, the “shrunken log2 fold change” value is 0.148. For RRIRERPPRLPRPRPRPNKEPRP, the “shrunken log2 fold change” value is -0.0147. As for RRIRKRPPRLPRPRPRPSEIPRP, the “shrunken log2 fold change” value was determined as 0.157.

With RRIRQRPPRLPRPRPRPYFHPRP, the “shrunken log2 fold change” value was -0.563. For RRIRVRPPRLPRPRPRPLARPRP, the “shrunken log2 fold change” value amounted to 0.0756.

Consider RRIRARPPRLPRPRPRPNIRPRP, for which the “shrunken log2 fold change” value is -0.289.

Take RRIRERPPRLPRPRPRPFDNPRP: the “shrunken log2 fold change” value is 3.45. As for RRIRHRPPRLPRPRPRPGWMPRP, the figure is 0.0172; as for RRIRVRPPRLPRPRPRPMEHPRP, 0.0534.

For RRIRARPPRLPRPRPRPIYIPRP, the “shrunken log2 fold change” value was 2.43. Consider RRIRCRPPRLPRPRPRPSLHPRP, for which the “shrunken log2 fold change” value is -0.289. In the case of RRIRKRPPRLPRPRPRPGKEPRP, the “shrunken log2 fold change” value was 0.266.

RRIRCRPPRLPRPRPRPMKAPRP: the “shrunken log2 fold change” value was -0.173. With RRIRYRPPRLPRPRPRPESPPRP, the “shrunken log2 fold change” value is -0.0215. As for RRIRPRPPRLPRPRPRPTALPRP, the figure is 0.0271; as for RRIRNRPPRLPRPRPRPSNWPRP, -0.203. As to RRIRRRPPRLPRPRPRPEKIPRP, the “shrunken log2 fold change” value is 0.164.

As for RRIRKRPPRLPRPRPRPTTLPRP, the “shrunken log2 fold change” value amounted to 0.0155. In the case of RRIRNRPPRLPRPRPRPCMCPRP, the “shrunken log2 fold change” value turned out to be 0.0188.

In the case of RRIRERPPRLPRPRPRPEVGPRP, the “shrunken log2 fold change” value turned out to be 0.0848. RRIRMRPPRLPRPRPRPDGTPRP: the “shrunken log2 fold change” value is 2.88. As for RRIRHRPPRLPRPRPRPQVFPRP, the figure is -0.00865. Take RRIRCRPPRLPRPRPRPHCQPRP: the “shrunken log2 fold change” value was 0.0911. Regarding RRIRERPPRLPRPRPRPWEPPRP, the “shrunken log2 fold change” value was 0.073. For RRIRFRPPRLPRPRPRPEHRPRP, the “shrunken log2 fold change” value came out at 0.105. Turning to RRIRSRPPRLPRPRPRPLTAPRP, the “shrunken log2 fold change” value is -0.0374. Turning to RRIRHRPPRLPRPRPRPYCCPRP, the “shrunken log2 fold change” value was -0.305. As for RRIRMRPPRLPRPRPRPDKLPRP, the “shrunken log2 fold change” value turned out to be 0.282.

Take RRIRNRPPRLPRPRPRPWGYPRP: the “shrunken log2 fold change” value is -0.123. Consider RRIRLRPPRLPRPRPRPVYSPRP, for which the “shrunken log2 fold change” value is -0.881. For the sequence RRIRIRPPRLPRPRPRPSDIPRP, the “shrunken log2 fold change” value is -0.366. Regarding RRIRRRPPRLPRPRPRPNPVPRP, the “shrunken log2 fold change” value is 0.123. For the sequence RRIRQRPPRLPRPRPRPIHPPRP, the “shrunken log2 fold change” value is -0.0838. For the sequence RRIRYRPPRLPRPRPRPYSNPRP, the “shrunken log2 fold change” value was -0.127. RRIRDRPPRLPRPRPRPADSPRP: the “shrunken log2 fold change” value came out at 0.157. On to RRIRARPPRLPRPRPRPREEPRP, for which the “shrunken log2 fold change” value stood at 0.579. Regarding RRIRSRPPRLPRPRPRPDHCPRP, the “shrunken log2 fold change” value was -0.0225.

For RRIRMRPPRLPRPRPRPIPKPRP, the “shrunken log2 fold change” value came to 0.0362.

Regarding RRIRVRPPRLPRPRPRPVTQPRP, the “shrunken log2 fold change” value was determined as 0.12. As for RRIRARPPRLPRPRPRPYLKPRP, the figure is -0.352. RRIRERPPRLPRPRPRPNFLPRP: the “shrunken log2 fold change” value is -0.114. With RRIRSRPPRLPRPRPRPQPTPRP, the “shrunken log2 fold change” value was 0.447.

On to RRIRWRPPRLPRPRPRPMTIPRP, for which the “shrunken log2 fold change” value was 0.025.

RRIRCRPPRLPRPRPRPFQWPRP: the “shrunken log2 fold change” value is -0.0999. For RRIRKRPPRLPRPRPRPISRPRP, the “shrunken log2 fold change” value is -0.00748.

Regarding RRIRQRPPRLPRPRPRPDPCPRP, the “shrunken log2 fold change” value was -0.243. As for RRIRERPPRLPRPRPRPDTVPRP, the figure is 0.37; as for RRIRFRPPRLPRPRPRPHWPPRP, 0.251. Consider RRIRDRPPRLPRPRPRPQASPRP, for which the “shrunken log2 fold change” value is -0.0448. With RRIRYRPPRLPRPRPRPMHRPRP, the “shrunken log2 fold change” value was -0.0541.

With RRIRRRPPRLPRPRPRPGMAPRP, the “shrunken log2 fold change” value was 0.339. With RRIRDRPPRLPRPRPRPAEPPRP, the “shrunken log2 fold change” value was found to be 0.288. As for RRIRLRPPRLPRPRPRPHLWPRP, the “shrunken log2 fold change” value is 0.0492. As for RRIRERPPRLPRPRPRPGQGPRP, the figure is -0.132; as for RRIRWRPPRLPRPRPRPTHGPRP, -0.0242. RRIRPRPPRLPRPRPRPRVMPRP: the “shrunken log2 fold change” value stood at 0.327. RRIRWRPPRLPRPRPRPKEPPRP: the “shrunken log2 fold change” value turned out to be 0.117. The same measure for RRIRDRPPRLPRPRPRPNKDPRP: -0.951; for RRIRPRPPRLPRPRPRPGFCPRP: 0.295. Turning to RRIRCRPPRLPRPRPRPDRQPRP, the “shrunken log2 fold change” value came to 0.00868. In the case of RRIRGRPPRLPRPRPRPCFYPRP, the “shrunken log2 fold change” value was 0.156. In the case of RRIRHRPPRLPRPRPRPWRPPRP, the “shrunken log2 fold change” value turned out to be 0.29.

For RRIRYRPPRLPRPRPRPDAIPRP, the “shrunken log2 fold change” value was -0.224. Regarding RRIRWRPPRLPRPRPRPYHEPRP, the “shrunken log2 fold change” value is -0.123. For RRIRVRPPRLPRPRPRPRSVPRP, the “shrunken log2 fold change” value came to 0.0756. On to RRIRCRPPRLPRPRPRPYYAPRP, for which the “shrunken log2 fold change” value is -1.1. On to RRIRMRPPRLPRPRPRPDTPPRP, for which the “shrunken log2 fold change” value was determined as 0.872. On to RRIRCRPPRLPRPRPRPWIAPRP, for which the “shrunken log2 fold change” value is -0.256. As to RRIRVRPPRLPRPRPRPGNFPRP, the “shrunken log2 fold change” value was -0.131. As to RRIRHRPPRLPRPRPRPCRYPRP, the “shrunken log2 fold change” value is -0.0657. As to RRIRVRPPRLPRPRPRPQSHPRP, the “shrunken log2 fold change” value was -0.613.
